Experimental data published in patent publication US20080060092A1.

What was measured:
[1] = biological target: FcγRIIIa on human effector cells of a FcγRIIIa Phe/Val^158 heterozygote donor (human) (UniProt P08637); assay: cell-based or functional assay
[2] = biological target: FcγRIIIa on human effector cells of a FcγRIIIa Phe/Phe^158 homozygote donor (human) (UniProt P08637); assay: cell-based or functional assay

Substance	ADCC, maximal percent cell lysis of L540 target cells [1]	ADCC, maximal percent cell lysis of L540 target cells [2]	ADCC EC50, times lower than MDX-060 CHO [1]	ADCC EC50, times lower than MDX-060 LEX [1]
MDX-060 CHO (antibody)	31%	15%		
MDX-060 LEX (antibody)	31%	27%		
MDX-060 LEX^Opt (antibody)			5 fold	3 fold
